Earlier results as cited in article PMC10347550, “Cyclic Ruthenium-Peptide Conjugates as Integrin-Targeting Phototherapeutic Prodrugs for the Treatment of Brain Tumors” (Journal of the American Chemical Society, 2023).

Target: fibrinogen (Homo sapiens) (UniProt P02671)
Sequence (P02671 36-866, chain 1 of 3): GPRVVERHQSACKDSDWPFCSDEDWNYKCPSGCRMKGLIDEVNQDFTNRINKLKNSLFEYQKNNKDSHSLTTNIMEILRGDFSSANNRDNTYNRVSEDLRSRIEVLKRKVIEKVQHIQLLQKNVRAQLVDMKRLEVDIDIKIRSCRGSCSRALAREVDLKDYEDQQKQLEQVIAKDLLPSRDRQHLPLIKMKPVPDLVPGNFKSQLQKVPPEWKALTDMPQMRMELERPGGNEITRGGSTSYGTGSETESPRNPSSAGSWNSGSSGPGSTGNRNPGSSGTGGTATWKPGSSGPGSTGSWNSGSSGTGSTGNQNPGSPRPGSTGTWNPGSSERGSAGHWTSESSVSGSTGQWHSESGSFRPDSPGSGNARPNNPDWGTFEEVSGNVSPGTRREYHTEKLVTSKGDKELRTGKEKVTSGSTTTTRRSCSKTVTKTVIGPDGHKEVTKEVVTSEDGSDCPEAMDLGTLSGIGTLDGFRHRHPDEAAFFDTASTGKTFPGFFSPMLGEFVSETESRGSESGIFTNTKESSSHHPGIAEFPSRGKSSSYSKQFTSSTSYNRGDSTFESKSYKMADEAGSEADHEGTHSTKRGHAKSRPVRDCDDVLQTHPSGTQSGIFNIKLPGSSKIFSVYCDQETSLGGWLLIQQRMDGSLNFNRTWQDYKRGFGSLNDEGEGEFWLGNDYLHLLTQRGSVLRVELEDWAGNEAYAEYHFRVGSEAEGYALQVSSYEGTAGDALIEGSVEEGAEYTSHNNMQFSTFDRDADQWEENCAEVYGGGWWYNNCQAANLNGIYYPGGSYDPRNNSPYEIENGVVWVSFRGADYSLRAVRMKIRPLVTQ
Sequence (P02675 45-491, chain 2 of 3, further chain): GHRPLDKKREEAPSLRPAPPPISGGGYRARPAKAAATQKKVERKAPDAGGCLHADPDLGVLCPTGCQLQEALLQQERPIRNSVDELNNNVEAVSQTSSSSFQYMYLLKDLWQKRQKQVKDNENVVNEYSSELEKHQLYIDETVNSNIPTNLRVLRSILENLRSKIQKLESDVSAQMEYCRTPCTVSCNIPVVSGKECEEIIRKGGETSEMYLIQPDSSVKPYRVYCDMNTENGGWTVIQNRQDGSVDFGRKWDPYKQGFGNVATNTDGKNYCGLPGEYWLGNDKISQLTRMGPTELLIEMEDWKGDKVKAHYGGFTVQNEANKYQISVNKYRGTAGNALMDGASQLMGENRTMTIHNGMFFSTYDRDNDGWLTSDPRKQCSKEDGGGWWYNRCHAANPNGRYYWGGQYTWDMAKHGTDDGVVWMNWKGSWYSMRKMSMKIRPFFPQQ
Sequence (P02679 27-453, chain 3 of 3, further chain): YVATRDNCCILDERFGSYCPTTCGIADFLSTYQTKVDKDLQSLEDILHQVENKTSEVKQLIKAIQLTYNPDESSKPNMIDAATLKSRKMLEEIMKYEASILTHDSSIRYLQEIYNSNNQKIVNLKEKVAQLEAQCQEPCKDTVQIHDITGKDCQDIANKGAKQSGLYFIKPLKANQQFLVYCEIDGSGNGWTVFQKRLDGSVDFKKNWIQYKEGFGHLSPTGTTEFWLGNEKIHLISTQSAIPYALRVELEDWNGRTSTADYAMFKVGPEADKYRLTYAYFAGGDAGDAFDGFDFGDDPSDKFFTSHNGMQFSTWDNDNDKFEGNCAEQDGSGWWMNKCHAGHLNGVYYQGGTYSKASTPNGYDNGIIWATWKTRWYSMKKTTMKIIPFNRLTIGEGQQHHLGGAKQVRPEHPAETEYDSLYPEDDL

Kd: 30 nM
Substance: integrin αIIbβ3 (from UniProt P08514)
